Results on 1 substance are retold here after paper PMC6787221.

The target of assay [1] is STAM2 UIM-SH3 with the linker shortened by 7 amino acids (human). The experiment in a line: NMR titration; 1H-15N HSQC chemical shift perturbation of 15N-labelled US-WT, US-Δ1, US-Δ2 upon addition of unlabelled Lys63-Ub2 until saturation; 15 °C, 20 mM sodium phosphate pH 6.8, 10% D2O, 0.02% NaN3; 2:1 model (each domain interacts with one unit of Lys63-Ub2).
The target of assay [2] is STAM2 UIM-SH3 with the linker shortened by 14 amino acids (human). The assay is described as above.

For the substance “Lys63-linked diubiquitin (from UniProt P0CG48 1-76) (complex)”, the KD at the SH3 domain in assay [1] was found to be 253 µM; in assay [2] it was 483 µM.

What is called KD is the free concentration of one partner at which half of the binding sites on the other are occupied at equilibrium, for simple one-to-one binding.
